Measured values as given in PMC3486956.

Target: aggregated glucose-6-phosphate dehydrogenase (G6PDH) from Leuconostoc mesenteroides (Leuconostoc mesenteroides) (UniProt P11411)
Assay: retention with aggregates on a 0.1-μm filter, SDS-PAGE

UniProt P11411, sequence (P11411 whole entry): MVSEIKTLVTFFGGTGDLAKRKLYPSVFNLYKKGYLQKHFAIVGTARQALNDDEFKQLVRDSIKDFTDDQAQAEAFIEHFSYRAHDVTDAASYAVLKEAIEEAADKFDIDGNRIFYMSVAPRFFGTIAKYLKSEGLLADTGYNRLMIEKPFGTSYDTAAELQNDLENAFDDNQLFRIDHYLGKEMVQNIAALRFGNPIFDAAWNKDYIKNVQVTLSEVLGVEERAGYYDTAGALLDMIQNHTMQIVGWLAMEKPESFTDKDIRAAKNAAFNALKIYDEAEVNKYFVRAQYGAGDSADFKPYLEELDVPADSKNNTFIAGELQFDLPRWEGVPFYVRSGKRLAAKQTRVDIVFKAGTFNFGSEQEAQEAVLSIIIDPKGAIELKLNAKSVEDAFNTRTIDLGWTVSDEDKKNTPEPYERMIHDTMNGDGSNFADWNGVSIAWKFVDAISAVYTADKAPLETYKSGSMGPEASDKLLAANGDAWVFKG

Substance	decrease of the amount bound compared to wt ClpB
ClpB 2P (GG motif converted into PP) (from UniProt P63284 1-857) (natural protein)	50%
ClpB 4G (four Gly inserted in the N-terminal linker) (from UniProt P63284 1-857) (natural protein)	50%
